Reference: publication PMC3553014, “Albumin Stimulates the Activity of the Human UDP-Glucuronosyltransferases 1A7, 1A8, 1A10, 2A1 and 2B15, but the Effects Are Enzyme and Substrate Dependent” (PLoS ONE, 2013)

T1: UGT1A8 (Homo sapiens, UniProt Q9HAW9)
T1 sequence (Q9HAW9 26-530): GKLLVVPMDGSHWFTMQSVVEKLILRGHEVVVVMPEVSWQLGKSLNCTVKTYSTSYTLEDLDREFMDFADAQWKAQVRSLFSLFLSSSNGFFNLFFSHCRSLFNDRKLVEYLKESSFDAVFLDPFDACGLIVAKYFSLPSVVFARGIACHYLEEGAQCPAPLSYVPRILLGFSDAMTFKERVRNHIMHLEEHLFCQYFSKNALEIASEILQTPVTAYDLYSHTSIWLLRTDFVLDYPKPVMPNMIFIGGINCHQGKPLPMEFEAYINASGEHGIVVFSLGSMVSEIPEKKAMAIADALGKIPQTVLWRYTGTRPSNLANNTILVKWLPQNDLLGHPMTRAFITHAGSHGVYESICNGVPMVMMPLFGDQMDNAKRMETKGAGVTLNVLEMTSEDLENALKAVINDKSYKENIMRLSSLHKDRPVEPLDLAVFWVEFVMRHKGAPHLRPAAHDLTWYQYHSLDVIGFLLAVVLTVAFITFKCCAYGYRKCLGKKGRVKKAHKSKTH

B1: UGT1A10 (Homo sapiens) (protein)
chain: GKLLVVPMDGSHWFTMQSVVEKLILRGHEVVVVMPEVSWQLERSLNCTVKTYSTSYTLEDQNREFMVFAHAQWKAQAQSIFSLLMSSSSGFLDLFFSHCRSLFNDRKLVEYLKESSFDAVFLDPFDTCGLIVAKYFSLPSVVFTRGIFCHHLEEGAQCPAPLSYVPNDLLGFSDAMTFKERVWNHIVHLEDHLFCQYLFRNALEIASEILQTPVTAYDLYSHTSIWLLRTDFVLDYPKPVMPNMIFIGGINCHQGKPLPMEFEAYINASGEHGIVVFSLGSMVSEIPEKKAMAIADALGKIPQTVLWRYTGTRPSNLANNTILVKWLPQNDLLGHPMTRAFITHAGSHGVYESICNGVPMVMMPLFGDQMDNAKRMETKGAGVTLNVLEMTSEDLENALKAVINDKSYKENIMRLSSLHKDRPVEPLDLAVFWVEFVMRHKGAPHLRPAAHDLTWYQYHSLDVIGFLLAVVLTVAFITFKCCAYGYRKCLGKKGRVKKAHKSKTH
B2: UGT1A7 (Homo sapiens) (protein)
chain: GKLLVVPMDGSHWFTMQSVVEKLILRGHEVVVVMPEVSWQLGRSLNCTVKTYSTSYTLEDQDREFMVFADARWTAPLRSAFSLLTSSSNGIFDLFFSNCRSLFNDRKLVEYLKESCFDAVFLDPFDACGLIVAKYFSLPSVVFARGIFCHYLEEGAQCPAPLSYVPRLLLGFSDAMTFKERVWNHIMHLEEHLFCPYFFKNVLEIASEILQTPVTAYDLYSHTSIWLLRTDFVLEYPKPVMPNMIFIGGINCHQGKPVPMEFEAYINASGEHGIVVFSLGSMVSEIPEKKAMAIADALGKIPQTVLWRYTGTRPSNLANNTILVKWLPQNDLLGHPMTRAFITHAGSHGVYESICNGVPMVMMPLFGDQMDNAKRMETKGAGVTLNVLEMTSEDLENALKAVINDKSYKENIMRLSSLHKDRPVEPLDLAVFWVEFVMRHKGAPHLRPAAHDLTWYQYHSLDVIGFLLAVVLTVAFITFKCCAYGYRKCLGKKGRVKKAHKSKTH
B3: UGT1A8 (Homo sapiens) (protein)
chain: T1 sequence (Q9HAW9 26-530)
B4: UGT2B7 (Homo sapiens) (protein)
chain: GKVLVWAAEYSHWMNIKTILDELIQRGHEVTVLASSASILFDPNNSSALKIEIYPTSLTKTELENFIMQQIKRWSDLPKDTFWLYFSQVQEIMSIFGDITRKFCKDVVSNKKFMKKVQESRFDVIFADAIFPCSELLAELFNIPFVYSLSFSPGYTFEKHSGGFIFPPSYVPVVMSELTDQMTFMERVKNMIYVLYFDFWFEIFDMKKWDQFYSEVLGRPTTLSETMGKADVWLIRNSWNFQFPYPLLPNVDFVGGLHCKPAKPLPKEMEDFVQSSGENGVVVFSLGSMVSNMTEERANVIASALAQIPQKVLWRFDGNKPDTLGLNTRLYKWIPQNDLLGHPKTRAFITHGGANGIYEAIYHGIPMVGIPLFADQPDNIAHMKARGAAVRVDFNTMSSTDLLNALKRVINDPSYKENVMKLSRIQHDQPVKPLDRAVFWIEFVMRHKGAKHLRVAAHDLTWFQYHSLDVIGFLLVCVATVIFIVTKCCLFCFWKFARKAKKGKND
B5: UGT1A6 (Homo sapiens) (protein)
chain: DKLLVVPQDGSHWLSMKDIVEVLSDRGHEIVVVVPEVNLLLKESKYYTRKIYPVPYDQEELKNRYQSFGNNHFAERSFLTAPQTEYRNNMIVIGLYFINCQSLLQDRDTLNFFKESKFDALFTDPALPCGVILAEYLGLPSVYLFRGFPCSLEHTFSRSPDPVSYIPRCYTKFSDHMTFSQRVANFLVNLLEPYLFYCLFSKYEELASAVLKRDVDIITLYQKVSVWLLRYDFVLEYPRPVMPNMVFIGGINCKKRKDLSQEFEAYINASGEHGIVVFSLGSMVSEIPEKKAMAIADALGKIPQTVLWRYTGTRPSNLANNTILVKWLPQNDLLGHPMTRAFITHAGSHGVYESICNGVPMVMMPLFGDQMDNAKRMETKGAGVTLNVLEMTSEDLENALKAVINDKSYKENIMRLSSLHKDRPVEPLDLAVFWVEFVMRHKGAPHLRPAAHDLTWYQYHSLDVIGFLLAVVLTVAFITFKCCAYGYRKCLGKKGRVKKAHKSKTH
B6: UGT2B4 (Homo sapiens) (protein)
chain: GKVLVWPTEFSHWMNIKTILDELVQRGHEVTVLASSASISFDPNSPSTLKFEVYPVSLTKTEFEDIIKQLVKRWAELPKDTFWSYFSQVQEIMWTFNDILRKFCKDIVSNKKLMKKLQESRFDVVLADAVFPFGELLAELLKIPFVYSLRFSPGYAIEKHSGGLLFPPSYVPVVMSELSDQMTFIERVKNMIYVLYFEFWFQIFDMKKWDQFYSEVLGRPTTLSETMAKADIWLIRNYWDFQFPHPLLPNVEFVGGLHCKPAKPLPKEMEEFVQSSGENGVVVFSLGSMVSNTSEERANVIASALAKIPQKVLWRFDGNKPDTLGLNTRLYKWIPQNDLLGHPKTRAFITHGGANGIYEAIYHGIPMVGVPLFADQPDNIAHMKAKGAAVSLDFHTMSSTDLLNALKTVINDPLYKENAMKLSRIHHDQPVKPLDRAVFWIEFVMRHKGAKHLRVAAHDLTWFQYHSLDVTGFLLACVATVIFIITKCLFCVWKFVRTGKKGKRD
B7: UGT1A1 (Homo sapiens) (protein)
chain: HAGKILLIPVDGSHWLSMLGAIQQLQQRGHEIVVLAPDASLYIRDGAFYTLKTYPVPFQREDVKESFVSLGHNVFENDSFLQRVIKTYKKIKKDSAMLLSGCSHLLHNKELMASLAESSFDVMLTDPFLPCSPIVAQYLSLPTVFFLHALPCSLEFEATQCPNPFSYVPRPLSSHSDHMTFLQRVKNMLIAFSQNFLCDVVYSPYATLASEFLQREVTVQDLLSSASVWLFRSDFVKDYPRPIMPNMVFVGGINCLHQNPLSQEFEAYINASGEHGIVVFSLGSMVSEIPEKKAMAIADALGKIPQTVLWRYTGTRPSNLANNTILVKWLPQNDLLGHPMTRAFITHAGSHGVYESICNGVPMVMMPLFGDQMDNAKRMETKGAGVTLNVLEMTSEDLENALKAVINDKSYKENIMRLSSLHKDRPVEPLDLAVFWVEFVMRHKGAPHLRPAAHDLTWYQYHSLDVIGFLLAVVLTVAFITFKCCAYGYRKCLGKKGRVKKAHKSKTH
B8: UGT2B15 (Homo sapiens) (protein)
chain: GKVLVWPTEYSHWINMKTILEELVQRGHEVTVLTSSASTLVNASKSSAIKLEVYPTSLTKNYLEDSLLKILDRWIYGVSKNTFWSYFSQLQELCWEYYDYSNKLCKDAVLNKKLMMKLQESKFDVILADALNPCGELLAELFNIPFLYSLRFSVGYTFEKNGGGFLFPPSYVPVVMSELSDQMIFMERIKNMIHMLYFDFWFQIYDLKKWDQFYSEVLGRPTTLFETMGKAEMWLIRTYWDFEFPRPFLPNVDFVGGLHCKPAKPLPKEMEEFVQSSGENGIVVFSLGSMISNMSEESANMIASALAQIPQKVLWRFDGKKPNTLGSNTRLYKWLPQNDLLGHPKTKAFITHGGTNGIYEAIYHGIPMVGIPLFADQHDNIAHMKAKGAALSVDIRTMSSRDLLNALKSVINDPVYKENVMKLSRIHHDQPMKPLDRAVFWIEFVMRHKGAKHLRVAAHNLTWIQYHSLDVIAFLLACVATVIFIITKFCLFCFRKLAKKGKKKKRD
B9: UGT2B17 (Homo sapiens) (protein)
chain: GKVLVWPTEYSHWINMKTILEELVQRGHEVIVLTSSASILVNASKSSAIKLEVYPTSLTKNDLEDFFMKMFDRWTYSISKNTFWSYFSQLQELCWEYSDYNIKLCEDAVLNKKLMRKLQESKFDVLLADAVNPCGELLAELLNIPFLYSLRFSVGYTVEKNGGGFLFPPSYVPVVMSELSDQMIFMERIKNMIYMLYFDFWFQAYDLKKWDQFYSEVLGRPTTLFETMGKAEMWLIRTYWDFEFPRPFLPNVDFVGGLHCKPAKPLPKEMEEFVQSSGENGIVVFSLGSMISNMSEESANMIASALAQIPQKVLWRFDGKKPNTLGSNTRLYKWLPQNDLLGHPKTKAFITHGGTNGIYEAIYHGIPMVGIPLFADQHDNIAHMKAKGAALSVDIRTMSSRDLLNALKSVINDPIYKENIMKLSRIHHDQPVKPLDRAVFWIEFVMRHKGAKHLRVAAHNLTWIQYHSLDVIAFLLACVATMIFMITKCCLFCFRKLAKTGKKKKRD

What follows are molecules tested on CCN(CC)C(=O)/C(C#N)=C/c1cc(O)c(O)c([N+](=O)[O-])c1 (assay: purified protein, by the assay type). Settings: pH 7.4.
Experimental: Protein concentrations were determined by the BCA method (Pierce Biotechnology, Rockford, IL, USA).
(§1) The protein concentrations and incubation times for the enzyme kinetic assays were selected based on preliminary assays in order to ensure that the product formation was within the linear range with respect to both protein concentration and time, and that the substrate consumption during the reaction was less than 10%. The initial velocity measurements were performed in either duplicates or triplicates and they are presented as the average values and S.E.
The HPLC system consisted of an Agilent 1100 series degasser, binary pump, 100-vial autosampler, thermostated column compartment, multiple wavelengths UV detector, and fluorescence detector (Agilent Technologies, Palo Alto, CA, USA). […] The resulting chromatograms were analyzed with Agilent ChemStation software (rev. B.01.01) on Windows XP Professional. The UPLC system consisted of a Waters Acquity UPLC equipped with column manager, sample manager, binary solvent pump, and photodiode array UV detector (Waters, Milford, MA, USA). The UV detector was equipped with high-sensitivity 2.4 µL flow cell.
(§2) In assays containing BSA, the total concentrations of substrate were corrected according to the measured drug binding to BSA, under the specific conditions of each glucuronidation assay.

Molecule	K0.5	Vmax
B1	56.7±2.3(51.9–61.5) uM	0.00091 µmol/min/mg
B2	33.2±4.0(24.9–41.6) uM	0.00015 µmol/min/mg
B3	73.1±3.7(65.4–80.7) uM	0.0012 µmol/min/mg

What follows are molecules tested on Cc1cc(=O)oc2cc(O)ccc12 (assay: purified protein, by the assay type). Settings: pH 7.4.

Molecule	K0.5	Vmax
B4	301±65(165–436) uM	0.00028 µmol/min/mg
B5	76.4±15.1(45.3–107.5) uM	0.0052 µmol/min/mg
B6	298±43(210–387) uM	
B7	72.6±6.9(58.2–87.0) uM	0.00011 µmol/min/mg
B8	29.6±0.9(27.6–31.5) uM	0.00083 µmol/min/mg
B3	134±9(115–154) uM	0.0012 µmol/min/mg
B9	377±42(291–463) uM	5e-05 µmol/min/mg

Each molecule was assayed on Oc1cccc2ccccc12 (assay: purified protein, by the assay type). Settings: pH 7.4.

Molecule	K0.5
B5	8.07±0.48(7.08–9.06) uM
B6	210±12(186–235) uM
B7	101±11(78–123) uM
B9	540±26(485–595) uM

Each molecule was assayed against T1, UGT1A8 (assay: UGT1A8-catalyzed glucuronidation, enzyme kinetics). Settings: 1% DMSO; entacapone glucuronidation; absence and presence of 0.1% BSA.
Experimental: Recombinant human UGTs 1A1, 1A6, 1A7, 1A8, 1A10, 2A1, 2B4, 2B7 and 2B17 were expressed as His-tagged proteins in baculovirus-infected insect cells as described previously [14]. […] Protein concentrations were determined by the BCA method (Pierce Biotechnology, Rockford, IL, USA).
as §1
The glucuronidation rates by recombinant enzymes are reported as “expression normalized” values. The relative expression level of each recombinant UGT that was produced in our laboratory was determined using immunoblotting, as previously described [14], [19]. The dot blot assays were performed in triplicate and the average value was used for normalization. […] The “expression normalized” glucuronidation rates were calculated by dividing the measured glucuronidation rates with relative expression level of the each given recombinant UGT.
as §2

Molecule	reduction of the UGT activity
C[S+](C)[O-] [DMSO, Dimethyl sulfoxide]	≤ 15%
